Reference: the RNAGym collection of RNA variant scans (doi:10.1093/molbev/msab373)

B1: Azoarcus group I ribozyme (parent)
chain: GUGCCUUGCGCCGGGAAACCACGCAAGGGAUGGUGUCAAAUUCGGCGAAACCUAAGCGCCCGCCCGGGCGUAUGGCAACGCCGAGCCAAGCUUCGGCGCCUGCGCCGAUGAAGGUGUAGAGACUAGACGGCACCCACCUAAGGCAAACGCUAUGGUGAAGGCAUAGUCCAGGGAGUGGCGAAAGUCACACAAACCGG

Variants of: B1
Test: reverse-splicing fitness (ratio to wild type); higher = more active; in vitro selection; Mg2+ level not given
How it was run: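 An in vitro group I ribozyme library with randomized positions was T7-transcribed and gel-purified. In triplicate, 10 pmol RNA in EPPS pH 7.5 was reacted with 50 pmoles of a 30-nt RNA substrate for 1 h at 37 °C across several added MgCl2 levels (1–48 mM), then stopped with EDTA. Products were reverse transcribed from a substrate-complementary primer, PCR-amplified and sequenced (HiSeq 4000). Fitness is a variant's read proportion after selection over that before, normalised to wild type.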

First: GUGCCUUGCGCCGGGAAACCACGCAAGGGAUGGUGUCAAAUUCGGCGAAACCUAAGCGCCCGCCCGGGCGUAUGGCAACGCUGAGCCAAGCUUCGGCGCCUGCGCCGAUGAAGGUGUAGGGACUAGACGGCACCCACCUAAGGCCAACGUUAUGGUGAAGGCAUAGUCAAGGGAGCGGCGAAAGUCACACAAACCGG
Second: GUGCCUUGCGCCGGGAAACCACGCAAGGGAUGGUGUCAAAUUCGGCGAAACCUAAGCGCCCGCCCGGGCGUAUGGCAACGCUGAGCCAAGCUUCGGCGCCUGCGCCGAUGAAGGUGUAGGGACUAGACGGCACCCACCUAAGGCCAACGUUAUGGUGAAGGCAUAGUCAAGGGAGGGGCGAAAGUCACACAAACCGG
The reverse-splicing fitness of the first is higher: 0.00527 for the first, 0.00346 for the second.

First: GUGCCUUGCGCCGGGAAACCACGCAAGGGAUGGUGUCAAAUUCGGCGAAACCUAAGCGCCCGCCCGGGCGUAUGGCAACGCUGAGCCAAGCUUCGGCGCCUGCGCCGAUGAAGGUGUAGGGACUAGACGGCACCCACCUAAGGCCAACGUUAUGGUGAAGGCAUAGUCCAGGGAGUGGCGAAAGUCACACAAACCGG
Second: GUGCCUUGCGCCGGGAAACCACGCAAGGGAUGGUGUCAAAUUCGGCGAAACCUAAGCGCCCGCCCGGGCGUAUGGCAACGCUGAGCCAAGCUUCGGCGCCUGCGCCGAUGAAGGUGUAGGGACUAGACGGCACCCACCUAAGGCCAACGCUAUGGUGAAGGCAUAGUCAAGGGAGUGGCGAAAGUCACACAAACCGG
The reverse-splicing fitness of the first is lower: 0.0102 for the first, 0.014 for the second.

Going from GUGCCUUGCGCCGGGAAACCACGCAAGGGAUGGUGUCAAAUUCGGCGAAACCUAAGCGCCCGCCCGGGCGUAUGGCAACGCUGAGCCAAGCUUCGGCGCCUGCGCCGAUGAAGGUGUAGGGACUAGACGGCACCCACCUAAGGCCAACGGUAUGGUGAAGGCAUAGUCGAGGGAGUGGCGAAAGUCACACAAACCGG to GUGCCUUGCGCCGGGAAACCACGCAAGGGAUGGUGUCAAAUUCGGCGAAACCUAAGCGCCCGCCCGGGCGUAUGGCAACGCUGAGCCAAGCUUCGGCGCCUGCGCCGAUGAAGGUGUAGGGACUAGACGGCACCCACCUAAGGCCAACGGUAUGGUGAAGGCAUAGUCUAGGGAGUGGCGAAAGUCACACAAACCGG, the reverse-splicing fitness falls from 0.00837 to 0.00822.

Compared with GUGCCUUGCGCCGGGAAACCACGCAAGGGAUGGUGUCAAAUUCGGCGAAACCUAAGCGCCCGCCCGGGCGUAUGGCAACGCUGAGCCAAGCUUCGGCGCCUGCGCCGAUGAAGGUGUAGGGACUAGACGGCACCCACCUAAGGCCAACGGUAUGGUGAAGGCAUAGUCCAGGGAGGGGCGAAAGUCACACAAACCGG, GUGCCUUGCGCCGGGAAACCACGCAAGGGAUGGUGUCAAAUUCGGCGAAACCUAAGCGCCCGCCCGGGCGUAUGGCAACGCUGAGCCAAGCUUCGGCGCCUGCGCCGAUGAAGGUGUAGGGACUAGACGGCACCCACCUAAGGCCAACGGUAUGGUGAAGGCAUAGUCCAGGGAGAGGCGAAAGUCACACAAACCGG is higher in reverse-splicing fitness: 0.00257 for the first, 0.00438 for the second.

Compared with GUGCCUUGCGCCGGGAAACCACGCAAGGGAUGGUGUCAAAUUCGGCGAAACCUAAGCGCCCGCCCGGGCGUAUGGCAACGCUGAGCCAAGCUUCGGCGCCUGCGCCGAUGAAGGUGUAGGGACUAGACGGCACCCACCUAAGGCCAACGGUAUGGUGAAGGCAUAGUCCAGGGAGCGGCGAAAGUCACACAAACCGG, GUGCCUUGCGCCGGGAAACCACGCAAGGGAUGGUGUCAAAUUCGGCGAAACCUAAGCGCCCGCCCGGGCGUAUGGCAACGCUGAGCCAAGCUUCGGCGCCUGCGCCGAUGAAGGUGUAGGGACUAGACGGCACCCACCUAAGGCCAACGUUAUGGUGAAGGCAUAGUCCAGGGAGAGGCGAAAGUCACACAAACCGG is higher in reverse-splicing fitness: 0.00608 for the first, 0.00845 for the second.

First: GUGCCUUGCGCCGGGAAACCACGCAAGGGAUGGUGUCAAAUUCGGCGAAACCUAAGCGCCCGCCCGGGCGUAUGGCAACGCUGAGCCAAGCUUCGGCGCCUGCGCCGAUGAAGGUGUAGGGACUAGACGGCACCCACCUAAGGCCAACGUUAUGGUGAAGGCAUAGUCCAGGGAGCGGCGAAAGUCACACAAACCGG
Second: GUGCCUUGCGCCGGGAAACCACGCAAGGGAUGGUGUCAAAUUCGGCGAAACCUAAGCGCCCGCCCGGGCGUAUGGCAACGCUGAGCCAAGCUUCGGCGCCUGCGCCGAUGAAGGUGUAGGGACUAGACGGCACCCACCUAAGGCCAACGUUAUGGUGAAGGCAUAGUCCAGGGAGGGGCGAAAGUCACACAAACCGG
The reverse-splicing fitness of the first is higher: 0.00744 for the first, 0.00347 for the second.

First: GUGCCUUGCGCCGGGAAACCACGCAAGGGAUGGUGUCAAAUUCGGCGAAACCUAAGCGCCCGCCCGGGCGUAUGGCAACGCUGAGCCAAGCUUCGGCGCCUGCGCCGAUGAAGGUGUAGGGACUAGACGGCACCCACCUAAGGCCAACGUUAUGGUGAAGGCAUAGUCUAGGGAGCGGCGAAAGUCACACAAACCGG
Second: GUGCCUUGCGCCGGGAAACCACGCAAGGGAUGGUGUCAAAUUCGGCGAAACCUAAGCGCCCGCCCGGGCGUAUGGCAACGCUGAGCCAAGCUUCGGCGCCUGCGCCGAUGAAGGUGUAGGGACUAGACGGCACCCACCUAAGGCCAACGUUAUGGUGAAGGCAUAGUCUAGGGAGGGGCGAAAGUCACACAAACCGG
The reverse-splicing fitness of the first is higher: 0.00975 for the first, 0.00351 for the second.

GUGCCUUGCGCCGGGAAACCACGCAAGGGAUGGUGUCAAAUUCGGCGAAACCUAAGCGCCCGCCCGGGCGUAUGGCAACGCUGAGCCAAGCUUCGGCGCCUGCGCCGAUGAAGGUGUAGGGACUAGACGGCACCCACCUAAGGCCAACGUUAUGGUGAAGGCAUAGUCUAGGGAGAGGCGAAAGUCACACAAACCGG gave a reverse-splicing fitness of 0.0235.
